Measured values: patent US20200062843A1 (CRAGE MEDICAL, published 2020)
Substitutions are numbered along the chain they refer to. Read-outs that look alike come from different tables or passages of the source.

B1: murine antibody HD37 (scFv chimeric with human IgG1 Fc) (Fc fusion)
VH: QVQLQQSGAELVRPGSSVKISCKASGYAFSSYWMNWVKQRPGQGLEWIGQIWPGDGDTNYNGKFKGKATLTADESSSTAYMQLSSLASEDSAVYFCARRETTTVGRYYYAMDYWGQGTTVTVSS
VL: DIQLTQSPASLAVSLGQRATISCKASQSVDYDGDSYLNWYQQIPGQPPKLLIYDASNLVSGIPPRFSGSGSGTDFTLNIHPVEKVDAATYHCQQSTEDPWTFGGGTKLEIKR
notes: also called parental antibody HD37; parental HD37
B2: humanized antibody huHD37 (scFv_Fc fusion antibody) (Fc fusion)
scFv: QVQLVQSGAEVKKPGSSVKVSCKASGYTFSSYWMNWVRQAPGQGLEWMGQIWPGDGDTNYNGKFKGRVTITADESTSTAYMELSSLRSEDTAVYYCARRETTTVGRYYYAMDYWGQGTTVTVSSGGGGSGGGGSGGGGSDIVLTQSPASLAVSPGQRATITCKASQSVDYDGDSYLNWYQQKPGQPPKLLIYDASNLVSGVPARFSGSGSGTDFTLTINPVEANDTANYYCQQSTEDPWTFGQGTKVEIKR
notes: also called humanized huHD37; not shown: human IgG1 Fc fragment carried by the eukaryotic expression vector V152
B3: clone 6B3 (scFv_Fc) (Fc fusion)
scFv: B2 scFv with M34I, D57E, N59H
B4: clone 8E3 (scFv_Fc) (Fc fusion)
scFv: B2 scFv with Q166H, V168L, S174N
notes: Only the light chain is said to differ from huHD37; not shown: Human Fc fragment of expression vector V152 (and any junction residues to it)

How the values were obtained:
[1] = biological target: T1, human CD19 (human, UniProt P15391 20-556); test: flow cytometry on K562-CD19 cells
T1 construct: In the killing assay it is also on Daudi and Raji cells; also called K562-CD19; K562 cells stably transfected with human CD19
T1 sequence: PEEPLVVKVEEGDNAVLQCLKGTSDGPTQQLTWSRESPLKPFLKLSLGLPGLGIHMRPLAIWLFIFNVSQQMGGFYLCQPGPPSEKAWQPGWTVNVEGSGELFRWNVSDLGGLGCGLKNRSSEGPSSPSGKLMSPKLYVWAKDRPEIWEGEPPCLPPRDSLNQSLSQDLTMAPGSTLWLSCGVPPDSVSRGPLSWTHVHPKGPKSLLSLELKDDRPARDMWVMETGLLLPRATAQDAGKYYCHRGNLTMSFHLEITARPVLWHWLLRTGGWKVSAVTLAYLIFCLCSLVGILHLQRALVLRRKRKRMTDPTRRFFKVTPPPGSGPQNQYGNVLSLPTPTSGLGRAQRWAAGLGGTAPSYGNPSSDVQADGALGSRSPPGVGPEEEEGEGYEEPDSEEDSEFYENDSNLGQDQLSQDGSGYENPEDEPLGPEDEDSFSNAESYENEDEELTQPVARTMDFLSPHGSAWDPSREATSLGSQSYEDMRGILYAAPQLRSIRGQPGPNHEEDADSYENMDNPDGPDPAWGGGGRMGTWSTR
Protocol: (§1) K562 cells (K562-CD19) stably expressing human CD19 and K562 were used, and cells were harvested, washed with complete growth medium and plated into U-bottom microtiter plates at approximately 1−5×10⁵ cells/well. The gradient-diluted huHD37 scFv_Fc fusion antibody was incubated with K562-CD19/K562 for 30 minutes on ice, and then incubated with FITC-labeled anti-human Fc as a secondary antibody. After two washing steps, the analysis was performed using Guava easyCyte™ HT System, and the experimental data was processed using GraphPad Prism to obtain an EC50.

[2] = biological target: T1, human CD19; test: flow cytometry, scFv_Fc on K562-CD19 cells, FITC anti-human Fc
Protocol: as §1
K562 cells stably expressing human CD19 (K562-CD19) and K562 were used, and cells were harvested, washed with complete growth medium, and plated into U-bottom microtiter plates at approximately 1−5×10⁵ cells/well. The gradient diluted scFv_Fc fusion antibody was incubated with K562-CD19/K562 for 30 minutes on ice, and then incubated with FITC-labeled anti-human Fc as a secondary antibody. After two washing steps, the analysis was performed using Guava easyCyte™ HT System, and the experimental data was processed using GraphPad Prism to obtain an EC50.

[3] = biological target: T2, human CD19 (UniProt P15391 20-556); test: FACS cell binding; avid
T2 chain: T1 sequence

[4] = biological target: T2, human CD19; test: FACS cell binding; avid

Binder | binding result [1] | binding result [2] | EC50 [3] | EC50 [4]
B1 | binds | – | – | –
B2 | – | binds | 4.7 nM | –
B3 | – | – | – | 2.74 nM
B4 | – | binds | – | 4.72 nM
